Reference: publication PMC5840378, “Cytochrome c speeds up caspase cascade activation by blocking 14-3-3ε-dependent Apaf-1 inhibition” (Cell Death & Disease, 2018)

What was measured:
Test in all cases: ITC; Auto-ITC200, 25 °C; 2-μL injections of 300 μM Cc into the cell with 20 μM 14-3-3ε species or peptide; 10 mM sodium phosphate pH 7.4
Settings in all cases: both partners purified
14-3-3ε FL D99K = target: T1, 14-3-3ε FL D99K (UniProt P62258 1-255, D99K)
T1 construct: 14-3-3ε full length with D99K; source: E. coli BL21 (DE3), purified (Ni Sepharose); mutant obtained from Mutagenex Inc
T1 sequence (looked up): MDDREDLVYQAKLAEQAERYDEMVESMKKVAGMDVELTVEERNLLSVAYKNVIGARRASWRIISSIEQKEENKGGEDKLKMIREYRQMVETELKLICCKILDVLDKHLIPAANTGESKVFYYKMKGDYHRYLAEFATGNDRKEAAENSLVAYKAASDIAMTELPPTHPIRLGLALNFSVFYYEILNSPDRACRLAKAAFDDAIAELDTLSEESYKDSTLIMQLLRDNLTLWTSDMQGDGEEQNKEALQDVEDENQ

14-3-3ε FL K50E = target: T2, 14-3-3ε FL K50E (UniProt P62258 1-255, K50E)
T2 construct: 14-3-3ε full length with K50E; source: E. coli BL21 (DE3), purified (Ni Sepharose); mutant obtained from Mutagenex Inc
T2 sequence (looked up): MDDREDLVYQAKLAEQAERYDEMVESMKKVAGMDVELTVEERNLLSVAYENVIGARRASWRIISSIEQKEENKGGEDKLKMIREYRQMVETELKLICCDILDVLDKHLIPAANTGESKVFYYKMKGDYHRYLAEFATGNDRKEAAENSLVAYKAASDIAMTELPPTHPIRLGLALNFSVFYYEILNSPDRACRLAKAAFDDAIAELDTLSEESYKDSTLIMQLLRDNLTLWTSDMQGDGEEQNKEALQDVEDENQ

14-3-3ε FL D21K = target: T3, 14-3-3ε FL D21K (UniProt P62258 1-255, D21K)
T3 construct: 14-3-3ε full length with D21K; source: E. coli BL21 (DE3), purified (Ni Sepharose); mutant obtained from Mutagenex Inc
T3 sequence (looked up): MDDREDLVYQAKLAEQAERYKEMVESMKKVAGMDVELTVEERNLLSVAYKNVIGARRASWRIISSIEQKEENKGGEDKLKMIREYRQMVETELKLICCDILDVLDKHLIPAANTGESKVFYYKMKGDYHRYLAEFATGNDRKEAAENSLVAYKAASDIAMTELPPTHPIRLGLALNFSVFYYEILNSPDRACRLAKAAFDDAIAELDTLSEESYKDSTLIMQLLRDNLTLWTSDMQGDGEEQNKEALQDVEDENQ

14-3-3ε FL S59E = target: T4, 14-3-3ε FL S59E (UniProt P62258 1-255, S59E)
T4 construct: 14-3-3ε full length with S59E; source: E. coli BL21 (DE3), purified (Ni Sepharose); mutant obtained from Mutagenex Inc
T4 sequence (looked up): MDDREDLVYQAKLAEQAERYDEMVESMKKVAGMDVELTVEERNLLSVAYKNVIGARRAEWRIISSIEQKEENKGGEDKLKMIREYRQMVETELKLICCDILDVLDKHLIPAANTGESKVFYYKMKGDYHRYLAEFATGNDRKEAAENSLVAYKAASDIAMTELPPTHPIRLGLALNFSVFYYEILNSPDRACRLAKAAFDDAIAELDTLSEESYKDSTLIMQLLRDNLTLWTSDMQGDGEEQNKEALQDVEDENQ

[1] = target: T5, 14-3-3ε full length (14-3-3ε FL), recombinant (UniProt P62258 1-255)
T5 construct: 14-3-3ε (14-3-3 protein epsilon), full length, cloned NdeI-XhoI into pET-28a; Homodimer by ultracentrifugation and light scattering; The printed cloning primers seem to add a Met before Met1 and a Glu after the last residue; also called 14-3-3ε FL WT; source: E. coli BL21 (DE3), purified (Ni Sepharose)
T5 sequence (looked up): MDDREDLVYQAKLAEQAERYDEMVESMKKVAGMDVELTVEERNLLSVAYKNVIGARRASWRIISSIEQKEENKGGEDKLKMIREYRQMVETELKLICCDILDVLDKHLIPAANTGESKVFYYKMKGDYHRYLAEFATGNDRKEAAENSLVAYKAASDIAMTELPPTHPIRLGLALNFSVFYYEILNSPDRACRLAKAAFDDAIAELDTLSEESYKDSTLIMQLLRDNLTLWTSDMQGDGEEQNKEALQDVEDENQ

[2] = target: T6, 14-3-3ε C-terminal peptide (14-3-3ε_(234-255)) (UniProt P62258 234-255)
T6 construct: 14-3-3ε, C-terminal tail, residues 234-255; also called non-acetylated peptide; C-terminal tail of 14-3-3ε; source: bought: Genosphere Biotechnologies (France)
T6 peptide (looked up): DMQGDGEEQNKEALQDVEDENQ

14-3-3ε FL E92K = target: T7, 14-3-3ε FL E92K (UniProt P62258 1-255, E92K)
T7 construct: 14-3-3ε full length with E92K; source: E. coli BL21 (DE3), purified (Ni Sepharose); mutant obtained from Mutagenex Inc
T7 sequence (looked up): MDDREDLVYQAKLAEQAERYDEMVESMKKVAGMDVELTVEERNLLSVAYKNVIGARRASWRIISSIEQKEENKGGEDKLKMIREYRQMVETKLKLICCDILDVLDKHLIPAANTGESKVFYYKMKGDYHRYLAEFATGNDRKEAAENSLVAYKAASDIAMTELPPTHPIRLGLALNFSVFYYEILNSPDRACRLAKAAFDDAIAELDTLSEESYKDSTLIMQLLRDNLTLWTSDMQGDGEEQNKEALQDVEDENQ

14-3-3ε FL S187D = target: T8, 14-3-3ε FL S187D (UniProt P62258 1-255, S187D)
T8 construct: 14-3-3ε full length with S187D; source: E. coli BL21 (DE3), purified (Ni Sepharose); mutant obtained from Mutagenex Inc
T8 sequence (looked up): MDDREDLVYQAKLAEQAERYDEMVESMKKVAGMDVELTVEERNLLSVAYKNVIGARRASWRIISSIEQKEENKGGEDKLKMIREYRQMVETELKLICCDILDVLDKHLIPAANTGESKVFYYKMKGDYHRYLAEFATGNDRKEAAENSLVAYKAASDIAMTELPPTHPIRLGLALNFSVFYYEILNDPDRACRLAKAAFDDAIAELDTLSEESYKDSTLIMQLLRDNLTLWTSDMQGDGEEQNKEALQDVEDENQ

binding result (14-3-3ε FL D99K): binds
stoichiometry N (14-3-3ε FL K50E): 1
stoichiometry N (14-3-3ε FL D21K): 1
stoichiometry N (14-3-3ε FL S59E): 1
Kd [1]: 2300 nM
stoichiometry N [1]: 2 Cc per 14-3-3ε FL homodimer
stoichiometry N [2]: 1
stoichiometry N (14-3-3ε FL E92K): 1
binding result (14-3-3ε FL S187D): binds
B1: cytochrome c (Cc), recombinant (natural protein)
chain: not shown
modifications: heme group; 15N-labelled for the 2D NMR titrations
notes: Met80 is M81 in P99999); Reduced with sodium ascorbate in the NMR experiments; also called hemeprotein; reduced Cc; source: E. coli BL21 (DE3), purified (ionic chromatography, carboxy-methylcellulose)
